Laboratory results published in US20120172293A1 (Takeda / Millennium, published 2012).
Non-standard residues stand in square brackets, D forms with d. No end group written: not given here. *: point of attachment. X11 = ((1S)-1-carboxy-3-methylbutyl)carbamoyl, CC(C)C[C@H](NC(=O)*)C(=O)O; Phe(3-Me) = Cc1cccc(C[C@H](N)C(=O)O)c1; Phe(2-Me) = Cc1ccccc1C[C@H](N)C(=O)O; tBuAla = CC(C)(C)C[C@H](N)C(=O)O; 4Pal = N[C@@H](Cc1ccncc1)C(=O)O; Cha = N[C@@H](CC1CCCCC1)C(=O)O; 4Amb = NCc1ccc(C(=O)O)cc1; Abu = CC[C@H](N)C(=O)O; Aib = CC(C)(N)C(=O)O; Ahx = NCCCCCC(=O)O

T1: human Y2 receptor (human), P49146
T1 chain: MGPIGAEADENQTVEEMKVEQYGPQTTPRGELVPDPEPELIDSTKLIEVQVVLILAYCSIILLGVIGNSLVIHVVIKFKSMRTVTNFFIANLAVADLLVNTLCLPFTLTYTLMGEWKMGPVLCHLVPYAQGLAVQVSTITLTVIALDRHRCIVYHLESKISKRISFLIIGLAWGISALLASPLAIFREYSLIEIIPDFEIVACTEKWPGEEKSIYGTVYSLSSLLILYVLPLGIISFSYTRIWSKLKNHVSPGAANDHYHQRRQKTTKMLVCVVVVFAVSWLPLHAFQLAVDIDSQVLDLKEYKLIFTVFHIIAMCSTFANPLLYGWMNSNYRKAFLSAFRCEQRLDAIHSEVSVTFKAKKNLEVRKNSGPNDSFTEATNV

T2: human Y2 receptor (human, UniProt P49146 1-381)
T2 construct: whole, on cells; used as membrane fraction of CHO/dhfr- cells stably expressing hY2R; also called hY2R; human NPY2R
T2 sequence (looked up): T1 chain

B1: Ac-[Arg20, D-Tyr21, D-Pro24, Pya(4)26, Cha27, Aib28,31, Lys30, Phe(2Me)36]-PYY(20-36) (peptide)
peptide: Ac-R[dY]AS[dP]R[4Pal][Cha][Aib]NK[Aib]TRQR[Phe(2-Me)]-NH2
SMILES: CC(=O)N[C@@H](CCCNC(=N)N)C(=O)N[C@H](Cc1ccc(O)cc1)C(=O)N[C@@H](C)C(=O)N[C@@H](CO)C(=O)N1CCC[C@@H]1C(=O)N[C@@H](CCCNC(=N)N)C(=O)N[C@@H](Cc1ccncc1)C(=O)N[C@@H](CC1CCCCC1)C(=O)NC(C)(C)C(=O)N[C@@H](CC(N)=O)C(=O)N[C@@H](CCCCN)C(=O)NC(C)(C)C(=O)N[C@H](C(=O)N[C@@H](CCCNC(=N)N)C(=O)N[C@@H](CCC(N)=O)C(=O)N[C@@H](CCCNC(=N)N)C(=O)N[C@@H](Cc1ccccc1C)C(N)=O)[C@@H](C)O
notes: also called compound No. 261
B2: Ac-[D-Tyr21, D-Pro24, Cha27,28,36, Aib31]-PYY(20-36) (peptide)
peptide: Ac-Y[dY]AS[dP]RH[Cha][Cha]NL[Aib]TRQR[Cha]-NH2
SMILES: CC(=O)N[C@@H](Cc1ccc(O)cc1)C(=O)N[C@H](Cc1ccc(O)cc1)C(=O)N[C@@H](C)C(=O)N[C@@H](CO)C(=O)N1CCC[C@@H]1C(=O)N[C@@H](CCCNC(=N)N)C(=O)N[C@@H](Cc1c[nH]cn1)C(=O)N[C@@H](CC1CCCCC1)C(=O)N[C@@H](CC1CCCCC1)C(=O)N[C@@H](CC(N)=O)C(=O)N[C@@H](CC(C)C)C(=O)NC(C)(C)C(=O)N[C@H](C(=O)N[C@@H](CCCNC(=N)N)C(=O)N[C@@H](CCC(N)=O)C(=O)N[C@@H](CCCNC(=N)N)C(=O)N[C@@H](CC1CCCCC1)C(N)=O)[C@@H](C)O
notes: also called compound No. 355
B3: [Ile22,28,31, Lys23, Acp24, Ala26]-PYY(22-36) (peptide)
peptide: IK[Ahx]RAYINLITRQRY-NH2
modifications: N-terminus assumed
SMILES: CC[C@H](C)[C@H](N)C(=O)N[C@@H](CCCCN)C(=O)NCCCCCC(=O)N[C@@H](CCCNC(=N)N)C(=O)N[C@@H](C)C(=O)N[C@@H](Cc1ccc(O)cc1)C(=O)N[C@H](C(=O)N[C@@H](CC(N)=O)C(=O)N[C@@H](CC(C)C)C(=O)N[C@H](C(=O)N[C@H](C(=O)N[C@@H](CCCNC(=N)N)C(=O)N[C@@H](CCC(N)=O)C(=O)N[C@@H](CCCNC(=N)N)C(=O)N[C@@H](Cc1ccc(O)cc1)C(N)=O)[C@@H](C)O)[C@@H](C)CC)[C@@H](C)CC
notes: also called compound No. 353
B4: Ac-[D-Pro24, Cha27, Leu(Me)28, Lys30, Aib31, Phe(3Me)36]-PYY(23-36) (peptide)
peptide: Ac-S[dP]RH[Cha][tBuAla]NK[Aib]TRQR[Phe(3-Me)]-NH2
SMILES: CC(=O)N[C@@H](CO)C(=O)N1CCC[C@@H]1C(=O)N[C@@H](CCCNC(=N)N)C(=O)N[C@@H](Cc1c[nH]cn1)C(=O)N[C@@H](CC1CCCCC1)C(=O)N[C@@H](CC(C)(C)C)C(=O)N[C@@H](CC(N)=O)C(=O)N[C@@H](CCCCN)C(=O)NC(C)(C)C(=O)N[C@H](C(=O)N[C@@H](CCCNC(=N)N)C(=O)N[C@@H](CCC(N)=O)C(=O)N[C@@H](CCCNC(=N)N)C(=O)N[C@@H](Cc1cccc(C)c1)C(N)=O)[C@@H](C)O
notes: also called compound No. 258
B5: Ac-[Arg20, D-Tyr21, D-Pro24, Pya(4)26, Cha27, Aib28,31, Lys30, Phe(3Me)36]-PYY(20-36) (peptide)
peptide: Ac-R[dY]AS[dP]R[4Pal][Cha][Aib]NK[Aib]TRQR[Phe(3-Me)]-NH2
SMILES: CC(=O)N[C@@H](CCCNC(=N)N)C(=O)N[C@H](Cc1ccc(O)cc1)C(=O)N[C@@H](C)C(=O)N[C@@H](CO)C(=O)N1CCC[C@@H]1C(=O)N[C@@H](CCCNC(=N)N)C(=O)N[C@@H](Cc1ccncc1)C(=O)N[C@@H](CC1CCCCC1)C(=O)NC(C)(C)C(=O)N[C@@H](CC(N)=O)C(=O)N[C@@H](CCCCN)C(=O)NC(C)(C)C(=O)N[C@H](C(=O)N[C@@H](CCCNC(=N)N)C(=O)N[C@@H](CCC(N)=O)C(=O)N[C@@H](CCCNC(=N)N)C(=O)N[C@@H](Cc1cccc(C)c1)C(N)=O)[C@@H](C)O
notes: also called compound No. 262
B6: 4-Aminomethylbenzoyl-[Ala26, ILe28,31, Abu32]-PYY(25-36) (peptide)
peptide: [4Amb]RAYINLI[Abu]RQRY-NH2
modifications: N-terminus assumed
SMILES: CC[C@H](NC(=O)[C@@H](NC(=O)[C@H](CC(C)C)NC(=O)[C@H](CC(N)=O)NC(=O)[C@@H](NC(=O)[C@H](Cc1ccc(O)cc1)NC(=O)[C@H](C)NC(=O)[C@H](CCCNC(=N)N)NC(=O)c1ccc(CN)cc1)[C@@H](C)CC)[C@@H](C)CC)C(=O)N[C@@H](CCCNC(=N)N)C(=O)N[C@@H](CCC(N)=O)C(=O)N[C@@H](CCCNC(=N)N)C(=O)N[C@@H](Cc1ccc(O)cc1)C(N)=O
notes: also called compound No. 354
B7: [(1S)-1-carboxy-3-methylbutyl]carbamoyl-[D-Pro24, Cha27,36, Leu(Me)28, Lys30, Aib31]-PYY(23-36) (peptide)
peptide: X11-S[dP]RH[Cha][tBuAla]NK[Aib]TRQR[Cha]-NH2
SMILES: CC(C)C[C@H](NC(=O)N[C@@H](CO)C(=O)N1CCC[C@@H]1C(=O)N[C@@H](CCCNC(=N)N)C(=O)N[C@@H](Cc1c[nH]cn1)C(=O)N[C@@H](CC1CCCCC1)C(=O)N[C@@H](CC(C)(C)C)C(=O)N[C@@H](CC(N)=O)C(=O)N[C@@H](CCCCN)C(=O)NC(C)(C)C(=O)N[C@H](C(=O)N[C@@H](CCCNC(=N)N)C(=O)N[C@@H](CCC(N)=O)C(=O)N[C@@H](CCCNC(=N)N)C(=O)N[C@@H](CC1CCCCC1)C(N)=O)[C@@H](C)O)C(=O)O
notes: also called compound No. 253
B8: Ac-[D-Pro24, Cha27, Leu(Me)28, Lys30, Aib31, Phe(2Me)36]-PYY(23-36) (peptide)
peptide: Ac-S[dP]RH[Cha][tBuAla]NK[Aib]TRQR[Phe(2-Me)]-NH2
SMILES: CC(=O)N[C@@H](CO)C(=O)N1CCC[C@@H]1C(=O)N[C@@H](CCCNC(=N)N)C(=O)N[C@@H](Cc1c[nH]cn1)C(=O)N[C@@H](CC1CCCCC1)C(=O)N[C@@H](CC(C)(C)C)C(=O)N[C@@H](CC(N)=O)C(=O)N[C@@H](CCCCN)C(=O)NC(C)(C)C(=O)N[C@H](C(=O)N[C@@H](CCCNC(=N)N)C(=O)N[C@@H](CCC(N)=O)C(=O)N[C@@H](CCCNC(=N)N)C(=O)N[C@@H](Cc1ccccc1C)C(N)=O)[C@@H](C)O
notes: also called compound No. 255
B9: [(1S)-1-carboxy-3-methylbutyl]carbamoyl-[Glu23, D-Pro24, Cha27,28,36, Lys30, Aib31]-PYY(23-36) (peptide)
peptide: X11-E[dP]RH[Cha][Cha]NK[Aib]TRQR[Cha]-NH2
SMILES: CC(C)C[C@H](NC(=O)N[C@@H](CCC(=O)O)C(=O)N1CCC[C@@H]1C(=O)N[C@@H](CCCNC(=N)N)C(=O)N[C@@H](Cc1c[nH]cn1)C(=O)N[C@@H](CC1CCCCC1)C(=O)N[C@@H](CC1CCCCC1)C(=O)N[C@@H](CC(N)=O)C(=O)N[C@@H](CCCCN)C(=O)NC(C)(C)C(=O)N[C@H](C(=O)N[C@@H](CCCNC(=N)N)C(=O)N[C@@H](CCC(N)=O)C(=O)N[C@@H](CCCNC(=N)N)C(=O)N[C@@H](CC1CCCCC1)C(N)=O)[C@@H](C)O)C(=O)O
notes: also called compound No. 254
B10: [(1S)-5-Amino-1-carboxypentyl]carbamoyl-[D-Pro24, Cha27,28,36, Aib31]-PYY(23-36) (peptide)
peptide: {((1S)-5-amino-1-carboxypentyl)carbamoyl}-S[dP]RH[Cha][Cha]NL[Aib]TRQR[Cha]-NH2
notes: calculated mass 1980.2 fits the name; also called compound No. 323

Biological target: T1, human Y2 receptor (human), P49146
Experiment: cell-based or functional assay

| GBA EC50 Ratio (vs PYY(3-36)), [35S]GTPγS | Binder |
| --- | --- |
| 4 | [4Amb]RAYINLVTRQRY (ends and bridges not checked) [4-Aminomethylbenzoyl-[Ala26, Ile28, VAl31]-PYY(25-36)] |

Biological target: T2, human Y2 receptor
Experiment: RBA: displacement of [125I]-PYY from hY2R/CHO membranes
Method: After incubation at room temperature for 60 minutes, the mixture was filtered through the cell harvester FilterMate (PerkinElmer) using UniFilter-96 GF/C treated with polyethylenimine (PEI) solution (20 mM Tris, 0.3% PEI, pH 7.4), and the filter was washed 3 times with a filtering buffer (50 mM Tris, 5 mM MgCl₂, 150 mM NaCl, 0.03% NaN₃, 0.05% CHAPS, pH 7.4). Thereafter, UniFilter-96 GF/C was dried in a mechanical drier for 1 hour, 15 μl of the liquid scintillator MicroScint O (PerkinElmer) was added to each well, and a measurement was taken using TopCount (PerkinElmer). The data obtained were analyzed using Prism to calculate the IC₅₀ value.

| IC50 Ratio | Binder |
| --- | --- |
| 0.54 IC50 compound/IC50 PYY(3-36) | B1 |
| 1.4 IC50 compound/IC50 PYY(3-36) | B2 |
| 9.1 IC50 compound/IC50 PYY(3-36) | B3 |
| 0.61 IC50 compound/IC50 PYY(3-36) | B4 |
| 0.5 IC50 compound/IC50 PYY(3-36) | B5 |
| 68 IC50 compound/IC50 PYY(3-36) | B6 |
| 1.1 IC50 compound/IC50 PYY(3-36) | B7 |
| 0.8 IC50 compound/IC50 PYY(3-36) | B8 |
| 2.8 IC50 compound/IC50 PYY(3-36) | B9 |
| 1.3 IC50 compound/IC50 PYY(3-36) | B10 |

Biological target: T1, human Y2 receptor (human), P49146
Experiment: RBA: [125I]-PYY displacement, hY2R/CHO membranes

| IC50 Ratio (vs PYY(3-36)) | Binder |
| --- | --- |
| 7.2 | [4Amb]RAYINLVTRQRY (ends and bridges not checked) [4-Aminomethylbenzoyl-[Ala26, Ile28, VAl31]-PYY(25-36)] |

Biological target: T2, human Y2 receptor
Experiment: cell-based or functional assay

| GBA EC50 Ratio ([35S]GTPγS binding) | Binder |
| --- | --- |
| 0.81 EC50 compound/EC50 PYY(3-36) | B1 |
| 1.1 EC50 compound/EC50 PYY(3-36) | B2 |
| 4.8 EC50 compound/EC50 PYY(3-36) | B3 |
| 0.78 EC50 compound/EC50 PYY(3-36) | B4 |
| 1.7 EC50 compound/EC50 PYY(3-36) | B5 |
| 33 EC50 compound/EC50 PYY(3-36) | B6 |
| 0.85 EC50 compound/EC50 PYY(3-36) | B7 |
| 0.86 EC50 compound/EC50 PYY(3-36) | B8 |
| 1.5 EC50 compound/EC50 PYY(3-36) | B9 |
| 0.95 EC50 compound/EC50 PYY(3-36) | B10 |
